In US20250230251A1 (Bristol-Myers Squibb, published 2025):
Residue numbers refer to the chain shown, from its start. Each block holds one binder with its values, some of them ahead of it.

How the values were obtained:
huIL-18Rβ-HisAvi [1] = target: T1, huIL-18Rβ-HisAvi (human, UniProt O95256 20-356, biotinylated in the Octet blocking assay); experiment: SPR T200, pH 7; control
T1 construct: Soluble analyte in all SPR runs; captured on streptavidin sensors in the Octet assay; also called human IL-18Rβ; human IL-18Rβ-Avi-His
T1 sequence: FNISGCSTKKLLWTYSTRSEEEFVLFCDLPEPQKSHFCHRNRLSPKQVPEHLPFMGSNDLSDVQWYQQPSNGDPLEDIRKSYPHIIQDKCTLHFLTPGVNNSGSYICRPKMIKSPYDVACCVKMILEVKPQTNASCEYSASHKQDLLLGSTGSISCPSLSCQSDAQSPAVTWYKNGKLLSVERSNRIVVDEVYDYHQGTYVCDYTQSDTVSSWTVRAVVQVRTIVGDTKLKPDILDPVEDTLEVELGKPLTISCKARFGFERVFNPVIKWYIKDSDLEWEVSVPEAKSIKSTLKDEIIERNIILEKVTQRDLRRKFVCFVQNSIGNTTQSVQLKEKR

huIL-18Rβ-HisAvi [2] = target: T1, huIL-18Rβ-HisAvi; experiment: SPR Biacore T200, mAb captured on anti-human Fc, huIL-18Rβ-HisAvi as analyte, PBST pH 5.5, 37 °C, 1:1 Binding fit
huIL-18Rβ-HisAvi [3] = target: T1, huIL-18Rβ-HisAvi; experiment: SPR Biacore T200, mAb captured on anti-human Fc, huIL-18Rβ-HisAvi as analyte, PBST pH 6.0, 37 °C, 1:1 Binding fit
human IL-18Rβ on cells = target: T2, human IL-18Rβ on cells (human, UniProt O95256 20-599); experiment: cell-based or functional assay
T2 sequence: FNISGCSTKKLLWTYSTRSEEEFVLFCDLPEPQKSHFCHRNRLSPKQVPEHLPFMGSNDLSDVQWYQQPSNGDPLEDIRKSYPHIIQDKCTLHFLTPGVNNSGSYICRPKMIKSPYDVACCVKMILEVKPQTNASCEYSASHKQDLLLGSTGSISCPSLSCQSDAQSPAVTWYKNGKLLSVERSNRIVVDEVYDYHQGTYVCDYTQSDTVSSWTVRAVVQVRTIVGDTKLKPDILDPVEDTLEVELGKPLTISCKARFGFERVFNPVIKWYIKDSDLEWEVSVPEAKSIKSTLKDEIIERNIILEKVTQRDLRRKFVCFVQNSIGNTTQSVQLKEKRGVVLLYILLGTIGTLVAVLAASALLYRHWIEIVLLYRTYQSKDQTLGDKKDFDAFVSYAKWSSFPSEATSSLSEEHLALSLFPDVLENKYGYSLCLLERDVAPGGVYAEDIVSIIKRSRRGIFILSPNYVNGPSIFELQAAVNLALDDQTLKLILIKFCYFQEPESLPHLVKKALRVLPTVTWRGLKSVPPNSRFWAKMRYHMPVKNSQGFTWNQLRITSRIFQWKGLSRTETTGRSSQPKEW

Kd (huIL-18Rβ-HisAvi [1]): 0.2 nM
koff (huIL-18Rβ-HisAvi [1]): 7e-05 s⁻¹
kon (huIL-18Rβ-HisAvi [1]): 350000 M⁻¹ s⁻¹
B1: P21 (antibody, human IgG1, kappa, V domains shown)
VH: QVQLQQSGPGLVKPSETLSLTCTVSGGSISNYYWTWIRQPPGKGLEWIGYISDSGSTNYNPSLKSRVTISVDTSKNQFSLKLSSVTAADTAVYYCARETIVVRGFYFYVMDVWGQGTTVTVSS
VL: AIQLTQSPSSLSASVGDRVTITCRASQGISSALAWYQQRPGKAPKLLIYDASNWESGVPSRFSGSGSGTDFTLTISSLQPEDFATYYCQQFNSYPWTFGQGTKVEIKR
notes: Human IgG

apparent Kd (pooled screen) (huIL-18Rβ-HisAvi [2]): 2.56 nM
apparent koff (pooled screen) (huIL-18Rβ-HisAvi [2]): 0.000282 s⁻¹
apparent kon (pooled screen) (huIL-18Rβ-HisAvi [2]): 110000 M⁻¹ s⁻¹
apparent Kd (pooled screen) (huIL-18Rβ-HisAvi [3]): 2.35 nM
apparent koff (pooled screen) (huIL-18Rβ-HisAvi [3]): 0.000329 s⁻¹
apparent kon (pooled screen) (huIL-18Rβ-HisAvi [3]): 140000 M⁻¹ s⁻¹
B2: P20 (antibody, human IgG1, kappa)
heavy: QVQLQQSGPGLVKPSETLSLTCTVSGGSINNYYWSWIRQPPGKGLEWIGYIFYSGTTNYNPSLKSRVTISVDTSKNQFSLKLSSVTAADTAVYYCARDVGIAARNSYYYVMDVWGQGTTVTVSSASTKGPSVFPLAPSSKSTSGGTAALGCLVKDYFPEPVTVSWNSGALTSGVHTFPAVLQSSGLYSLSSVVTVPSSSLGTQTYICNVNHKPSNTKVDKRVEPKSCDKTHTCPPCPAPEAEGAPSVFLFPPKPKDTLMISRTPEVTCVVVDVSHEDPEVKFNWYVDGVEVHNAKTKPREEQYNSTYRVVSVLTVLHQDWLNGKEYKCKVSNKALPAPIEKTISKAKGQPREPQVYTLPPSREEMTKNQVSLTCLVKGFYPSDIAVEWESNGQPENNYKTTPPVLDSDGSFFLYSKLTVDKSRWQQGNVFSCSVMHEALHNHYTQKSLSLSPG
light: AIQLTQSPSSLSASVGDRVTITCRASQGISSALAWYQQKPGKAPKFLIYDASSLESGVPSRFSGSGSGTDFTLTISSLQPEDFATYYCQQFNSYPITFGQGTRLEIKRTVAAPSVFIFPPSDEQLKSGTASVVCLLNNFYPREAKVQWKVDNALQSGNSQESVTEQDSKDSTYSLSSTLTLSKADYEKHKVYACEVTHQGLSSPVTKSFNRGEC
notes: Human IgG

Average IC50, LPS+IL-12 dependent IFNg production, human whole blood (human IL-18Rβ on cells): 1.04 nM
B3: P20-V1 (antibody, human IgG1, kappa, V domains shown)
VH: QVQLQESGPGLVKPSETLSLTCTVSGGSINNYYWSWIRQPPGKGLEWIGYIFYSGTTNYNPSLKSRVTISVDTSKNQFSLKLSSVTAADTAVYYCARDVGIAARNSYYYVMDVWGQGTTVTVSS
VL: B1 VL with R39K, L46F, D50E, N53S, W54L, W96I, K103R, V104L
notes: Variant of P20
